{"source": "patent US20230338431", "biological_target": "cAMP response element-binding protein 1 (CREB1) (UniProt P16220)", "sequence (P16220 whole entry)": "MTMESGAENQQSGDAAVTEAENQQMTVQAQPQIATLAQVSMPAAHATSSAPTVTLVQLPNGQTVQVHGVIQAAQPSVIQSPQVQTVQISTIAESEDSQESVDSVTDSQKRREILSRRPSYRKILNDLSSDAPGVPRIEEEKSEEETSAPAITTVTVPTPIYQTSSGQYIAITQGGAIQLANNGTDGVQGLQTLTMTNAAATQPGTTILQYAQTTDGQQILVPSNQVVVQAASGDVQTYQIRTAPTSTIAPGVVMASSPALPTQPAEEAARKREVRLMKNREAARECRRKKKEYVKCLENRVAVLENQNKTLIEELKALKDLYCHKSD"}
{"substance": "protein kinase B (AKT) subunit AKT1", "values": [{"measurement": "p-CREB1 expression after siRNA against AKT1, AKT2 and AKT3, immunoblotting assay", "result": "only AKT1 phosphorylated and activated its downstream effector cAMP response element-binding protein 1 (CREB1)"}]}
